Measured values reported in PMC4340967, “Histidine 352 (His^352) and Tryptophan 355 (Trp^355) Are Essential for Flax UGT74S1 Glucosylation Activity toward Secoisolariciresinol” (PLoS ONE, 2015).

Tests used:
[1] = substrate: COc1cc(C[C@@H](CO)[C@H](CO)Cc2ccc(O)c(OC)c2)ccc1O; experiment: UPLC-MS assay of SMG formation, Lineweaver-Burk; assay type: biochemical, Linum usitatissimum; settings: 70-1650 µM SECO, 1.64 mM UDP-glucose fixed, 1 mM NaCl, pH 8.0, 30°C, for SMG production
From the text: (§1) UPLC-MS assay of SMG formation, Lineweaver-Burk on UGT74S1 (wild type, W)

[2] = substrate: O=c1ccn([C@@H]2O[C@H](CO[P@@](=O)(O)O[P@@](=O)(O)O[C@H]3O[C@H](CO)[C@@H](O)[C@H](O)[C@H]3O)[C@@H](O)[C@H]2O)c(=O)[nH]1; experiment: UPLC-MS assay of SMG formation, Lineweaver-Burk; assay type: biochemical, Linum usitatissimum; settings: 0.82-8.2 mM UDP-glucose, 280 µM SECO fixed, 1 mM NaCl, pH 8.0, 30°C, for SMG production
From the text: as §1

| Protein | Km [1] | kcat [1] | kcat/Km [1] | Km [2] | kcat [2] | kcat/Km [2] |
| --- | --- | --- | --- | --- | --- | --- |
| UGT74S1 (wild type, W) (Linum usitatissimum) (protein) MAGDEREKAHCLVVPAAAQGHFTPLLQFSKRLIPKRIRVTLALTRFIHSTMTVTAQSGIHIDTISDGFDHSGLILQDPEHYSQTFRRVGSETLTDLIRKQSESRHPVHCIIYDASMPWFLDVAKRFGIVGAAFLTQSCAVNAIYYHLREGTIKRPVVSDPAAGTLVIDGLPPLEVSDLPSFIWDDLHTEFLAAHLRQFSNDGADWVFCNTVYQLELEAVDWLTKQWLINFRTIGPTIPSFYLDKQIPDDKDYDISIFNPQNQTCMNWLQSKPDGSVVYVSFGSLARLSPQQTEELYFGLKNSNHYFLWVVRESEVAKLPKEEYLSGEKGLVVSWCSQLQVLASGKVGCFVTHCGWNSTLEALSLGVPMVAMPECGDQLTNAKFIKDVWKTGVRAEADDGKGIMWGMIKREVIERCIREVMEGEETRRNADKWGKIIKEAVVEGGSSDKNTEDFATSLINFAETFQFSC | 0.717 mM | 0.23 s⁻¹ | 321 M⁻¹ s⁻¹ | 1.103 mM | 0.135 s⁻¹ | 122 M⁻¹ s⁻¹ |
| UGT74S1 (wild type, W) (Linum usitatissimum; C335A) (protein) MAGDEREKAHCLVVPAAAQGHFTPLLQFSKRLIPKRIRVTLALTRFIHSTMTVTAQSGIHIDTISDGFDHSGLILQDPEHYSQTFRRVGSETLTDLIRKQSESRHPVHCIIYDASMPWFLDVAKRFGIVGAAFLTQSCAVNAIYYHLREGTIKRPVVSDPAAGTLVIDGLPPLEVSDLPSFIWDDLHTEFLAAHLRQFSNDGADWVFCNTVYQLELEAVDWLTKQWLINFRTIGPTIPSFYLDKQIPDDKDYDISIFNPQNQTCMNWLQSKPDGSVVYVSFGSLARLSPQQTEELYFGLKNSNHYFLWVVRESEVAKLPKEEYLSGEKGLVVSWASQLQVLASGKVGCFVTHCGWNSTLEALSLGVPMVAMPECGDQLTNAKFIKDVWKTGVRAEADDGKGIMWGMIKREVIERCIREVMEGEETRRNADKWGKIIKEAVVEGGSSDKNTEDFATSLINFAETFQFSC | 1.538 mM | 0.0494 s⁻¹ | 32.1 M⁻¹ s⁻¹ | 3.443 mM | 0.256 s⁻¹ | 74.3 M⁻¹ s⁻¹ |
| UGT74S1 (wild type, W) (Linum usitatissimum; Q337A) (protein) MAGDEREKAHCLVVPAAAQGHFTPLLQFSKRLIPKRIRVTLALTRFIHSTMTVTAQSGIHIDTISDGFDHSGLILQDPEHYSQTFRRVGSETLTDLIRKQSESRHPVHCIIYDASMPWFLDVAKRFGIVGAAFLTQSCAVNAIYYHLREGTIKRPVVSDPAAGTLVIDGLPPLEVSDLPSFIWDDLHTEFLAAHLRQFSNDGADWVFCNTVYQLELEAVDWLTKQWLINFRTIGPTIPSFYLDKQIPDDKDYDISIFNPQNQTCMNWLQSKPDGSVVYVSFGSLARLSPQQTEELYFGLKNSNHYFLWVVRESEVAKLPKEEYLSGEKGLVVSWCSALQVLASGKVGCFVTHCGWNSTLEALSLGVPMVAMPECGDQLTNAKFIKDVWKTGVRAEADDGKGIMWGMIKREVIERCIREVMEGEETRRNADKWGKIIKEAVVEGGSSDKNTEDFATSLINFAETFQFSC | 2.716 mM | 0.0077 s⁻¹ | 2.85 M⁻¹ s⁻¹ | 27.610 mM | 0.547 s⁻¹ | 19.8 M⁻¹ s⁻¹ |
